± gives the uncertainty stated by the source.
assay: amyloid nucleation score (Sup35N fusion, yeast selection) (log enrichment); library NNK2; higher = more nucleation; inactive = no reads after selection
How it was run: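 After 24 hours of induction with 100 μM copper sulfate, psi-negative yeast expressing peptides of 20 random codons fused to Sup35N were grown for 7 days at 30°C on medium lacking adenine and uracil. Input and output plasmid inserts were sequenced with Illumina, and sequences with under 100 input reads were discarded. Scores for nucleation are the DiMSum log enrichment of output over input reads, centred on the mode score of non-aggregating sequences.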

Substance	amyloid nucleation score
WLYLFKGWSNLDSESFTMTS	-0.943 ± 0.78
WMCRSTAMIHSRSDCV	6.328 ± 0.052
WNAALKYKAHVGIDVSRCVP	0.535 ± 0.33
WPNFV	-0.995 ± 0.76
WQRMDGIGELILMCCRYSFL	5.819 ± 0.033
WQSSSILIASSCVRSPGLPV	0.27 ± 0.46
WQYFFGMYNPSGGRRPGISG	-0.373 ± 1
WRAKAFSEKFIERRWDVGMN	-1.18 ± 0.62
WRALPKYGYCLSLGVYEETR	-0.102 ± 0.55
WRIYQDTFCLSIS	3.87 ± 0.076
WRVSSSI	-0.706 ± 0.76
WRYITCHS	1.59 ± 0.55
WSGKRAFNYINGGLGMAKEL	4.11 ± 0.062
WSLLEF	inactive
WSMKGFYL	inactive
WSNFVIMNVPANGAWNFRIR	-1.13 ± 0.76
WSPIGSFRCCGWCSSHQVRI	0.179 ± 0.57
WSRADDRQWGPRLDNVVVMV	0.83 ± 0.45
WSVWVRDSGSRMS	1.22 ± 0.13
WTCVEVHAVYCFGSVDELVL	8.556 ± 0.058
WTCVGSYWSLHFAFSR	4.25 ± 0.12
WTLLNCRGSEVKIGRCTKMG	inactive
WTMMYCTNACYDRYICNYRA	-0.038 ± 1.1
WTVRSARFWMSKQVVFSTTV	0.812 ± 0.5

Substance	amyloid nucleation score
WVACWTSLLYQVIVIIRGLN	0.975 ± 0.38
WVAKYLFSLEDHVSVRIVDI	0.227 ± 0.56
WVASSSKQRTHLCSGVKWSV	0.539 ± 0.56
WVCLYDVVICRIRLSDRENS	0.713 ± 0.74
WVDIPFW	-0.83 ± 1.1
WVNIYADLRLKVVAGNCCNV	3.38 ± 0.12
WVVVDNHLS	-0.234 ± 0.65
WVWRIRDCLIVSSTPTGMRV	0.806 ± 0.27
WVYLRVFAHKKRAALSWAYS	-0.077 ± 0.34
WWCMLFNGEGGDCDILDFSS	-0.385 ± 0.49
WWDRVRLFRYRLCGSKSLMS	0.429 ± 0.38
WWDTRRHVQCCSAEAIDFME	1.3 ± 0.47
WWFLIYLSSYRGNRCILVWF	-1.98 ± 0.44
WWSARYRGTLD	1.57 ± 0.24
WWSKEREYWSLPVGWFMEAV	0.085 ± 0.45
WYALNYTIPEPYWT	0.881 ± 0.48
WYMKILFGKRFSFGGVVSIF	3.74 ± 0.11
WYMQGTLTAMGRGQTQYLSC	0.405 ± 0.64
WYSQVPERALRQWGFFSLGG	0.397 ± 0.46
WYYFYLFDACLSVSCWAIWY	-0.283 ± 1
YAFRSYMKFIYFCSDFFSDR	-2.32 ± 0.75
YALCLKALEFMVMGLPSSRM	-0.049 ± 0.76
YALDL	0.08 ± 0.55
YALWFVIWEVGRGFLVVISF	inactive

Substance	amyloid nucleation score
YANDFLRLVHVWFREVIIKL	-0.398 ± 1
YAPGVLLSSMNDMAEYKGGI	-0.14 ± 0.28
YAQQIVVLVAGPWWSWTRRG	0.791 ± 0.81
YASYICIQHYCFFLAYYNML	inactive
YAVWLDMGFILIIACVGKYN	-0.747 ± 1.1
YAYAEWERNRWRRDDNLNVE	-0.251 ± 0.38
YCALWTTTE	1.62 ± 0.18
YCIKLRRYQNDKFWFNYTQV	4.35 ± 0.086
YCKFYWNHNVYCLVALWRLW	-0.149 ± 0.79
YCLSIWIDLSFIFVIRVDSG	inactive
YCMCIFATLG	-0.398 ± 0.76
YCRHIAVECSVGLHWHGGTV	3.26 ± 0.15
YCRMYSRNVDGVWHTISKLD	0.108 ± 0.42
YCVSPELDWTSIARGHTFNV	-0.509 ± 1.1
YCWWRSWEPKILRCSLVLVK	0.281 ± 0.44
YDGFDITYSYDLSVVFCVDR	0.046 ± 0.44
YDHDLINRKITSGHKVYFIG	-0.586 ± 0.49
YDPVAVF	-0.945 ± 0.43
YDRDCTRPCSPSSRGNFRDE	inactive
YDSTVFTITWAKWDVYSLST	2.36 ± 0.096
YDVSFTFLWW	0.242 ± 0.61
YEGLF	inactive
YEPSATEPRLRRFHGEARLL	0.32 ± 0.65
YERMWCHLLVLRPNKQK	0.697 ± 0.81

Substance	amyloid nucleation score
YESHLCVFTCWTFRFLNVMD	-1.01 ± 1.1
YEYVSYCVSDFRYLLQTV	0.436 ± 0.66
YFFSISWTCYFR	3.27 ± 0.044
YFLKSYGAFSMFQM	3.19 ± 0.15
YFLVKFSSNTFIVWTHRYFQ	0.057 ± 1.1
YFMVHIMGTVKIGRW	3.13 ± 0.098
YFNSLTQISSFRKFSRPLHS	0.033 ± 0.38
YFRAYWTCSEC	inactive
YFSWTWVVFNAFNEVRFWTW	-1.59 ± 0.61
YFVFHDQKSTNLGWIFVFCR	0.108 ± 0.65
YFVGWCIYEVNAYISVPVVF	inactive
YFWFYTV	-0.691 ± 0.34
YGAYVYINSFCKYNIIRSRS	6.034 ± 0.043
YGFCAFTHSC	-0.554 ± 1
YGLAC	2.44 ± 0.072
YGMKTGVNIFVVDVEMVKRS	5.93 ± 0.068
YGPICEYFQGCEALSWWSTC	0.39 ± 0.2
YGPSCSICPVVVIPSF	inactive
YGRLECISWCPISIHCGGAR	3.47 ± 0.11
YGSSGK	-0.362 ± 0.38
YGVYVRCYLDGSLWWNFTAW	inactive
YHCRSEVTCWLEYDG	0.712 ± 0.28
YHCVEYLGARL	0.083 ± 0.63
YHSFLWKINSCAVMMEDSTG	0.811 ± 0.67

Substance	amyloid nucleation score
YHYGNGVAWDMTRKPRHHFV	-0.243 ± 0.41
YICSFYEADRSTRCFLIFFF	-1.23 ± 0.44
YIFSSVNERLCPALNGWHLD	inactive
YILAFVILAMEAWHRV	3.68 ± 0.086
YILLWVYIHDGLAWSTLLDW	0.757 ± 0.6
YILNMFKETLDVLVLKRNCF	-1.18 ± 1.1
YIMSFRY	-0.592 ± 0.79
YINSMLSSYFDSLWEGSKSR	-0.109 ± 0.27
YIPNDCTTRDCLTYMMSWMF	-0.077 ± 0.63
YISCYCRSSFRMLSVVSDYR	2.54 ± 0.077
YISVKMRSGRTSTLSDCVKA	3.83 ± 0.076
YITFSDRLWTLLLWCRILWL	-0.002 ± 1
YITYSREAETCIFVKGDFS	-0.153 ± 1.1
YIVCYAVSGLVWSIGSHEGM	1.86 ± 0.13
YIWLDAYFTESGILYYLMIR	inactive
YIWYFKMEVDYVLMMYAVAG	0.183 ± 1
YIYETTLCYNTIPGL	-0.848 ± 0.29
YKGQCSILLGRVRWDFSSSS	-1.02 ± 0.78
YKHFSGFLDFQVPAFSGYVS	inactive
YKILQFETSFRT	-0.977 ± 0.63
YKLAFQSYIDGLLIL	inactive
YKLGVKPMKAG	-0.224 ± 0.79
YKNVAFCFVRMFFEGHSINC	-1.45 ± 0.76
YKSSGLLSYTSIGNVDIYFV	6.26 ± 0.079

Substance	amyloid nucleation score
YKSVERTASRMIQIEVFWEY	inactive
YKTFFLVASAKVNEAPGQRG	inactive
YKWVVPDWSWVLEMALSLPT	0.346 ± 0.5
YLCVYIRLYFMPLRYWKKMC	-0.606 ± 0.44
YLDAHILHE	4.54 ± 0.087
YLFDLVFILEQYFWL	2.85 ± 0.049
YLGAGPSNILCHPFISAGSN	inactive
YLLFTMRNLLILGRQGRSSL	-0.905 ± 0.45
YLLVLFGSGTYITPTLLRIN	-1.55 ± 0.49
YLNGLTYWDIMLPWAII	-0.324 ± 1.1
YLRTYLW	-0.208 ± 0.49
YLRVKMPVIRVIVR	inactive
YLSAAVKTEVV	0.619 ± 0.37
YLSDNLIAFWIVHNQWMIMA	6.005 ± 0.035
YLTFLNASTSRYKLSLVPRR	4.11 ± 0.082
YLVGCKDSRTSLSSLICIRL	8.842 ± 0.03
YLVPFWVVDCFDGLD	0.072 ± 1.1
YLVYKMNNGCLCNIFAPVTE	8.303 ± 0.064
YMIFCLSIYEDDEALGPTER	-0.287 ± 0.21
YMRMIYCMFRGNCWVVIVEA	0.216 ± 0.49
YMSNPSELWKNWILVHYHFC	3.56 ± 0.076
YMSPAH	0.606 ± 0.6
YMTVSRVHISRVCCVYTLNV	5.44 ± 0.064
YMWVCACRMSLIHGLSGHHD	0.536 ± 0.46

Substance	amyloid nucleation score
YNFDYTLMNYPLKAVPSEW	8.286 ± 0.053
YNISDLSMSYMAIRAYDSGS	-1.38 ± 0.62
YNLSVFQVITAPHEGDNRAW	4.55 ± 0.049
YNMMSKFNIFGYYACKSSWK	1.27 ± 0.14
YNPLLIV	0.082 ± 0.56
YNQRTFVSVSYEWTSGPWVC	0.334 ± 0.33
YNSNFPTLYWG	inactive
YNSPSDWDTIISSIILF	-1.21 ± 1.1
YNTISDWTSLEPYTLVRVLL	1.91 ± 0.064
YNVTYLLRCFSILVSRVLKV	inactive
YPKSLV	-0.698 ± 1.1
YPVCGCRLSRLVHNSTVDKV	0.639 ± 0.46
YQFTGFLLGRVIASIIRHGV	0.023 ± 0.45
YQSVRK	-0.022 ± 0.55
YRAAWSSAAG	-0.137 ± 1.1
YRDNCMRNIENSVT	-0.802 ± 0.54
YREACCCNSFACPGATDVGP	9.188 ± 0.046
YRFAGYVTPRFGYKSHNISL	-1.22 ± 1.1
YRGSGLMNTSDFVSVLALVN	inactive
YRLAWGH	-0.363 ± 1.1
YRTCNIDGL	inactive
YRVDSHWANLVLKTSMIWTT	-0.829 ± 0.28
YRWNYWFVVMMRPSSEDYLR	4.951 ± 0.047
YSAVKCFPYRLPLNYAQIGA	0.358 ± 0.53
